# B1: Virulence protein F (Agrobacterium tumefaciens (strain 15955)), P15597 (parent)
# chain: MRNSSLRDASGSNDAQVPHKTELLNLPDHVLTEVAKRLATNNPVESAENIANFSKSHRFTRDAVRTEPLEKFSSRLKILSRNAKLLSHAVRHAATLPDGEQLSEAQLSQMRSEVATRPVLGVAYTHQDGQPEERLSGNHLDHKINNIPNLVFNVAEPIMFNEISALEVMAEVRPIARSIKTAHDDARAELMSADRPRSTRGL
# Variants of: B1
# Settings: with skp1a_arath SKP1A
row,Variant,effect of a mutation on the interaction
1,MRNSSLRDASGSNDAQVPHKTELLNAADHVLTEVAKRLATNNPVESAENIANFSKSHRFTRDAVRTEPLEKFSSRLKILSRNAKLLSHAVRHAATLPDGEQLSEAQLSQMRSEVATRPVLGVAYTHQDGQPEERLSGNHLDHKINNIPNLVFNVAEPIMFNEISALEVMAEVRPIARSIKTAHDDARAELMSADRPRSTRGL [L26A;P27A],decreasing interaction strength

# Variants of: B1
# Settings: with skp1b_arath SKP1B
row,Variant,effect of a mutation on the interaction
1,MRNSSLRDASGSNDAQVPHKTELLNAADHVLTEVAKRLATNNPVESAENIANFSKSHRFTRDAVRTEPLEKFSSRLKILSRNAKLLSHAVRHAATLPDGEQLSEAQLSQMRSEVATRPVLGVAYTHQDGQPEERLSGNHLDHKINNIPNLVFNVAEPIMFNEISALEVMAEVRPIARSIKTAHDDARAELMSADRPRSTRGL [L26A;P27A],decreasing interaction strength

# From IntAct's records for PubMed 11250154
